Assays:
[1] = target: MBP-5-HT3A-ICD fusion protein (cytoplasmic domain of the mouse 5-HT3A receptor fused to the C-terminus of maltose binding protein) (mouse); assay: cross-linking; glutaraldehyde by vapor diffusion at 30 °C, 0.5 μg purified protein in buffer B; resolved by SDS-PAGE with Western blot (anti-MBP) or denaturing capillary gel electrophoresis
[2] = target: MBP-5-HT3A-ICD fusion protein (cytoplasmic domain of the mouse 5-HT3A receptor fused to the C-terminus of maltose binding protein) (mouse); assay: SEC-MALS; Superdex 200 HR 10/300 GL, 20 mM HEPES, 150 mM NaCl, 5 mM maltose, 0.01% NaN3, pH 7.4, ambient temperature, 0.1-1.0 mg protein loaded
[3] = target: MBP-5-HT3A-ICD fusion protein (cytoplasmic domain of the mouse 5-HT3A receptor fused to the C-terminus of maltose binding protein) (mouse); assay: SEC; Superdex 200 10/300 GL, 20 mM HEPES, 150 mM NaCl, 0.02% NaN3, pH 7.4; weight from calibration with standard proteins

Measured: stoichiometry N

MBP-5-HT3A-ICD fusion protein (cytoplasmic domain of the mouse 5-HT3A receptor fused to the C-terminus of maltose binding protein) (domain or fragment)
5: all assays above

— article PMC4820698
